Test results from paper PMC3814767, “Target Specificity of the E3 Ligase LUBAC for Ubiquitin and NEMO Relies on Different Minimal Requirements* ^([image sbox.jpg])” (The Journal of Biological Chemistry, 2013).

Molecular target: T1, N-terminal TAMRA-labeled ubiquitin (wild type) (UniProt P0CG48 1-76, TAMRA (5-carboxytetramethylrhodamine) label on the N-terminus)
T1 construct: also called ^TAMRAubiquitin; ^TAMRAUb; source: chemically synthesized (according to El Oualid et al.), purified over Resource S and gel filtration (Superdex 75)
Assay: fluorescence polarisation; TAMRA-ubiquitin 1 nM, HOIP^LDD in 1:1 serial dilutions, three repeats; 20 mM Hepes pH 7.5, 150 mM NaCl, 5 mM βME, 1 g/liter chicken ovalbumin; fit to a 1:1 non-linear binding model
Conditions: both partners purified

B1: HOIP linear ubiquitin chain determining domain (LDD) (domain or fragment, UniProt Q96EP0 910-1072, looked up)
chain: KCPEPNCRVKKSLHGHHPRDCLFYLRDWTALRLQKLLQDNNVMFNTEPPAGARAVPGGGCRVIEQKEVPNGLRDEACGKETPAGYAGLCQAHYKEYLVSLINAHSLDPATLYEVEELETATERYLHVRPQPLAGEDPPAYQARLLQKLTEEVPLGQSIPRRRK
notes: HOIP (RNF31), the C-terminal linear ubiquitin chain determining domain (LDD); also called HOIP^LDD; HOIP LDD domain
Kd: 160 ± 40 µM
